# Patent EP3240566B1 (Development Center for Biotechnology, dated 2020)
# B1: hum EN10 mAb IMGT (antibody, IgG1, V domains shown)
# VH: QVQLVQSGAEVKKPGASVKVSCKASGYTFTSCVMNWVRQAPGQGLEWMGYINPYNDGTKYNEKFKGRVTMTTDTSTSTAYMELRSLRSDDTAVYYCAREGFYYGNFDNWGQGTLVTVSS
# VL: DIQMTQSPSSLSASVGDRVTITCRASENIYSYLTWYQQKPGKAPKLLIYNAKTLPEGVPSRFSGSGSGTDFTLTISSLQPEDFATYYCQHHYGTPYTFGQGTKLEIKR
# notes: also called humanized EN10 mAb IMGT; Hum EN10 IMGT
# B2: hum EN10 mAb 4D5 (antibody, IgG1, V domains shown)
# VH: EVQLVESGGGLVQPGGSLRLSCAASGYTFTSCVMNWVRQAPGKGLEWVAYINPYNDGTKYNEKFKGRFTISRDDSKNTLYLQMNSLRAEDTAVYYCAREGFYYGNFDNWGQGTLVTVSS
# VL: B1 VL
# notes: also called humanized EN10 mAb 4D5; hum ENO10mAb 4D5
# Tests used:
# human ENO1 protein [1] = target: T1, human ENO1 protein (human, UniProt P06733 1-434); test: ENO1 binding ELISA
# T1 construct: also called ENOl; alpha-enolase
# T1 sequence (P06733 whole entry): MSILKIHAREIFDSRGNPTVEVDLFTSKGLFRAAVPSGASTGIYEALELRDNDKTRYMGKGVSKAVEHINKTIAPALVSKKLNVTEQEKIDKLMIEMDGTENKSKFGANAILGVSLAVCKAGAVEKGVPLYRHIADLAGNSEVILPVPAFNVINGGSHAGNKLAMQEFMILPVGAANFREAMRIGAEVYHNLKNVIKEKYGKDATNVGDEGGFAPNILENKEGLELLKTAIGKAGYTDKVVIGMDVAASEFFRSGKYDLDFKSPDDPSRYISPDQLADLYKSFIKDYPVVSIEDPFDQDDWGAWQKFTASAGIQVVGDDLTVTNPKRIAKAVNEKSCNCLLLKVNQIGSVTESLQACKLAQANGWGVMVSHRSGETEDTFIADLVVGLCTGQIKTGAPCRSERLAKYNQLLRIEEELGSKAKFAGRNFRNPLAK
# human ENO1 protein [2] = target: T1, human ENO1 protein; test: SPR, BIAcore 2000, ENO1 injected, 25 degree C, 1:1 Langmuir
Binder,Kd (human ENO1 protein [1]),Kd (human ENO1 protein [2])
B1,0.0365 nM,0.219 nM
B2,,0.5 nM
